Target: Bacteriophage T4 capsid, major capsid protein gp23* (bacteriophage T4)
Assay: co-sedimentation

| Substance | copies per capsid (copies per capsid) |
| --- | --- |
| M2e-Hoc fusion (influenza M2e peptide on the tip of the T4 Hoc fiber) | 90 |
| Soc-SpyCatcher displayed on the T4 phage capsid (T4-SpyCatcher phage) (designed binder) | 205 |
